Assay results: article PMC2529400

Target: KSHV viral G protein-coupled receptor, Flag-tagged (vGPCR-Flag) (Kaposi's sarcoma-associated herpesvirus (human herpesvirus 8)) (UniProt Q98146)
UniProt Q98146, sequence (Q98146 whole entry): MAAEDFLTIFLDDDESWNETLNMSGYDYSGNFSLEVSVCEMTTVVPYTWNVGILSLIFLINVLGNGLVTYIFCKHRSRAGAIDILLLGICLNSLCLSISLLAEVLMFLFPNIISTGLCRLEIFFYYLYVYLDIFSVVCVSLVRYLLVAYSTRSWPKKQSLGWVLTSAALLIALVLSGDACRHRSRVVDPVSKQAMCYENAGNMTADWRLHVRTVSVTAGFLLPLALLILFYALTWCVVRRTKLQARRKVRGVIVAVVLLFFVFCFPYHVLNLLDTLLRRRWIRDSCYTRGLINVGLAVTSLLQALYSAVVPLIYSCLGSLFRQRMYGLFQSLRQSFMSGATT

## KSHV K7 small membrane protein, V5-tagged (K7-V5), wild type (natural protein)
  AP-1 luciferase reporter activation by vGPCR in 293T cells with K7 co-expressed (about 4.5 fold without K7): 2 fold
  NF-AT luciferase reporter activation by vGPCR in 293T cells with K7 co-expressed (about 25 fold without K7): 8 fold
  NF-κB luciferase reporter activation by vGPCR in 293T cells with K7 co-expressed (about 4 fold without K7): 2 fold
